# Assay results: publication PMC4316792, “The dehydrogenase region of the NADPH oxidase component Nox2 acts as a protein disulfide isomerase (PDI) resembling PDIA3 with a role in the binding of the activator protein p67^phox” (Frontiers in Chemistry, 2015)
# B1: p67^phox(1–212) [not stated] / Nox2 peptide 24 (357–371) with an intramolecular disulfide bond between C369 and C371 [modified: biotin on the N-terminus; C-terminal amide; intramolecular disulfide bond between C369 and C371; biotin on the … (parent complex)
# chain 1: MSLVEAISLWNEGVLAADKKDWKGALDAFSAVQDPHSRICFNIGCMYTILKNMTEAEKAFTRSINRDKHLAVAYFQRGMLYYQTEKYDLAIKDLKEALIQLRGNQLIDYKILGLQFKLFACEVLYNIAFMYAKKEEWKKAEEQLALATSMKSEPRHSKIDKAMECVWKQKLYEPVVIPVGKLFRPNERQVAQLAKKDYLGKATVVASVVDQD
# chain 2: SGSGIVGDWTEGLFNACGC
# Variants of: B1
# Test: peptide-protein binding assay (surface-attached biotinylated peptide, protein in solution, kinetic TMB oxidation read-out); 10 min kinetic experiment; read off a plot
row,response,Variant
1,~12 Absorbance (650 nm) x 1000/min,"chain 1 MSLVEAISLWNEGVLAADKKDWKGALDAFSAVQDPHSRISFNIGSMYTILKNMTEAEKAFTRSINRDKHLAVAYFQRGMLYYQTEKYDLAIKDLKEALIQLRGNQLIDYKILGLQFKLFASEVLYNIAFMYAKKEEWKKAEEQLALATSMKSEPRHSKIDKAMESVWKQKLYEPVVIPVGKLFRPNERQVAQLAKKDYLGKATVVASVVDQD [chain 1 C40S, chain 1 C45S, chain 1 C121S, chain 1 C165S]"
